Data taken from patent publication US8546535 (ESPERANCE PHARMACEUTICALS, dated 2013).
Several values for one entry are separate records, joined by “and”; a condition that tells them apart may be missing. Identical values can stand only once.

Assays:
[1] = molecular target: luteinizing hormone-releasing hormone (LHRH) receptor (human) (UniProt P30968); test: cell-based or functional assay
[2] = molecular target: T1, luteinizing hormone-releasing hormone (LHRH) receptor (human, UniProt P30968 1-328); test: cell-based or functional assay
T1 sequence (looked up): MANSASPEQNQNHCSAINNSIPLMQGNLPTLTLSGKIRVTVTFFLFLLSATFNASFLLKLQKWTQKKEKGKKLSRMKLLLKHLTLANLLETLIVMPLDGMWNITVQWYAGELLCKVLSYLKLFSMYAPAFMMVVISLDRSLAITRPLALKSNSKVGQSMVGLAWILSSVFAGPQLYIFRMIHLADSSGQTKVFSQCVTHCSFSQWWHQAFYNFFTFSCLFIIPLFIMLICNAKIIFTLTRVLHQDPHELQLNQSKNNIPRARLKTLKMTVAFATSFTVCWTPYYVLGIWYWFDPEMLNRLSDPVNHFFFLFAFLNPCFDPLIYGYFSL

Row | Molecule | IC50, cytotoxicity in TM4 cells (no LHRH receptors; receptor-negative control) [1] | IC50, cytotoxicity (MTT) in MCF-7 cells [2] | IC50, cytotoxicity (MTT) in MDA-MB-435S cells, 0.5 hour incubation [2] | IC50, cytotoxicity (MTT) in MDA-MB-435S cells, 1 hour incubation [2] | IC50, cytotoxicity (MTT) in OVCAR-3 cells, increasing incubation time (1st of 7 values) [2] | IC50, cytotoxicity (MTT) in OVCAR-3 cells, increasing incubation time (2nd of 7 values) [2] | IC50, cytotoxicity (MTT) in OVCAR-3 cells, increasing incubation time (3rd of 7 values) [2] | IC50, cytotoxicity (MTT) in OVCAR-3 cells, increasing incubation time (4th of 7 values) [2] | IC50, cytotoxicity (MTT) in OVCAR-3 cells, increasing incubation time (5th of 7 values) [2] | IC50, cytotoxicity (MTT) in OVCAR-3 cells, increasing incubation time (6th of 7 values) [2] | IC50, cytotoxicity (MTT) in OVCAR-3 cells, increasing incubation time (7th of 7 values) [2] | IC50, cytotoxicity (MTT) in SKOV-3 cells, 24 hours incubation (cells without functional LHRH receptors; receptor-negative control) [2]
1 | LHRH-Phor21 (peptide) | 10900 nM | – | – | – | – | – | – | – | – | – | – | –
2 | KFAKFAKKFAKFAKKFAKQHWSYGLRPG [Phor18-LHRH (338613)] | – | 3400 nM and 1800 nM | 1200 nM | 600 nM | 6700 nM | 5600 nM | 5300 nM | 1600 nM | 1500 nM | 500 nM | 500 nM | 11500 nM
